Test results published in the supplement of paper PMC9732359.
± gives the uncertainty stated by the source.

Assay: protein stability index of a GFP-peptide fusion (yeast GPS) (PSI 1-4); higher = more stable; sorted into four equal gates, so the index is relative within each strain
Conditions: pdr5∆
Method in brief: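 The protein stability index combines read frequencies across sorting gates, each weighted by its gate number and then summed. To obtain those frequencies, a pooled yeast library of GFP fusions to tiled 17-residue yeast protein peptides, on a plasmid also expressing Cherry, was grown to mid-log phase in leucine-free medium. The cells were sorted into four equal gates by GFP/Cherry ratio before plasmid amplification by PCR and Illumina sequencing.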

Row | Sequence | protein stability index
1 | KFTTVLAKILARSIDVE [ECM29] | 1.53 ± 0.2
2 | KGAGLSMGTMICGYTRK [PRE2] | 1.27 ± 0.17

Same assay, conditions: san1∆

Row | Sequence | protein stability index
3 | ILSLIEEAAGTKMFEDR [SMC2] | 3.19 ± 0.084
4 | IMDNFLERTAIELKTDW [RPN1] | 3.07 ± 0.12
5 | IMYQQMLKYRRLFIGDQ [SNF2] | 1.3 ± 0.12
6 | INDKRANLMLVMLRLLL [SRB4] | 1.97 ± 0.067
7 | INGWKFESLPLKSAENS [SWP82] | 2.9 ± 0.055
8 | INKNSKIALREYINNCK [POP4] | 2.42 ± 0.11
9 | INYAFSMDEEFKNMDCI [SIR3] | 3.26 ± 0.033
10 | IPDFRSSEGFYSKIKHL [SIR2] | 2.17 ± 0.15
11 | IPGEYITYALSGYVRSR [RPS21B] | 2.39 ± 0.093
12 | IPKLKPAPINSLSRDFV [SNU114] | 2.68 ± 0.039
13 | IPPTFDKGAVGPNNFIW [MED4] | 2.77 ± 0.082
14 | IPSGNVWNYTFMGTAFN [PRP8] | 2.74 ± 0.095
15 | IPSKNTPDASKPSFSFG [YLR335W/NUP2] | 2.44 ± 0.2
16 | IPVNKRRGAHGSELSSK [SIR3] | 3.11 ± 0.22
17 | IQFLTIGAGVPSLEVAS [FAS1] | 1.2 ± 0.079
18 | IQIFRAHLWQKIHESIV [PRP8] | 2.59 ± 0.073
19 | IQISKLHYTPIEDLWQF [RPC82] | 2.09 ± 0.12
20 | IQLIKILNSHFDALRSL [YJL041W/NSP1] | 2.95 ± 0.033
21 | IQLNGGSISEKVDWARE [RPL3] | 2.88 ± 0.12
22 | IQQLHSVLNPFLLRRVK [ISW2] | 2.2 ± 0.059
23 | IQQVVEYADNDEDKFKK [PRP28] | 3.24 ± 0.084
24 | IQSAESIKSQKEEISDQ [SWI3] | 2.58 ± 0.098
25 | IQTKEQVSINSNKILVY [YIL149C/MLP2] | 1.85 ± 0.21
26 | IRARIPFYGSYTETDPA [SRP54] | 2.98 ± 0.06
27 | IRGAVGNSEAIPGLSAG [RTT102] | 3.26 ± 0.088
28 | IRNVIMSASNANDFQLT [SRB8] | 2.24 ± 0.087

Row | Sequence | protein stability index
29 | IRPLSKPMTAYARADTH [RRP6] | 2.8 ± 0.065
30 | IRQAIAKGLVAYHQKYV [RPS16A] | 1.41 ± 0.18
31 | IRRYCDVVAHRQLAGAI [DIS3] | 1.99 ± 0.097
32 | IRTQVNTGGESVVKKED [RGR1] | 3.41 ± 0.098
33 | IRVTNSFALPFEEDEKN [RPN8] | 3.05 ± 0.044
34 | ISDDDDSALRYSILGDR [POP4] | 2.61 ± 0.052
35 | ISIDSWPTTHKYPLGHF [DIS3] | 3.04 ± 0.082
36 | ISKQRTFAVILFLIIQC [YMR129W/POM152] | 1.32 ± 0.087
37 | ISLYLLNLLSQNNTTKF [RPN12] | 1.32 ± 0.073
38 | ISSGLLYLQDSNDKFVH [SRB8] | 1.25 ± 0.15
39 | ISTRERDYLVDTLKLRE [RRP6] | 2.97 ± 0.065
40 | ISVGLYDTTPLLDTNSL [SKI6] | 2.48 ± 0.099
41 | ISVTRQVVLGGTSKYLI [SMC2] | 2.79 ± 0.068
42 | ISYTSHIEGVVILKKNP [RPN1] | 2.87 ± 0.077
43 | ITKDHKVLARQQLQVLA [FAS2] | 1.82 ± 0.099
44 | ITKLHLDKDRKALIQRK [RPL26A] | 2.49 ± 0.16
45 | ITKLLEINLSKIFQTTP [YCS4] | 2.43 ± 0.042
46 | ITQIVEKDFCTSCLQNN [SRB8] | 2.68 ± 0.081
47 | ITSLYALIRRDFTLIPR [CDC53] | 1.18 ± 0.15
48 | ITVVLGVNGYIWLRKTS [RRP4] | 1.34 ± 0.26
49 | ITYTPVRHGRAGATTSR [RPS15] | 2.58 ± 0.088
50 | IVDKYIGESARIIREMF [RPT4] | 2.48 ± 0.11
51 | IVGKSNVLVTMPVAPTM [YMR129W/POM152] | 2.07 ± 0.17
52 | IVGPDLAVLALVIVKKG [RPS6A] | 1.19 ± 0.093
53 | IVPLTEGDIQVLKSYGA [RPT1] | 2.77 ± 0.062
54 | IVPVISTIENVLFYIGR [COB] | 2.4 ± 0.058

Row | Sequence | protein stability index
55 | IVQELLDKNLIKLVKQN [RPC34] | 2.62 ± 0.068
56 | IVSFIVNCFHEDTELYQ [YJL039C/NUP192] | 2.22 ± 0.055
57 | IYAGFGRDTTDYLKNII [RPN2] | 3.22 ± 0.16
58 | IYEKLKNYLKNYILNFK [CDC53] | 1.17 ± 0.13
59 | IYEVDITVHAPLLPIVE [SNU114] | 2.19 ± 0.088
60 | IYKRGQAGVTKASVTIV [SMC2] | 1.78 ± 0.13
61 | IYLLFQSSGKLKEYLDL [YDL116W/NUP84] | 2.52 ± 0.048
62 | IYSPLHSFIKMLQMKGK [SIR2] | 1.91 ± 0.14
63 | KADDDSVTIISAGNDKM [ASC1] | 3.16 ± 0.04
64 | KAEIPPEYAKVGDFLLQ [SIN4] | 1.7 ± 0.093
65 | KAKAQAQAQAQAQAQVY [PGD1] | 3.04 ± 0.083
66 | KAKFTSLAVRSLQDRSS [YCS4] | 2.13 ± 0.054
67 | KALPMLEQVEFEKNTIL [MED4] | 2.65 ± 0.064
68 | KANIFQVIKNEVCAKMP [SSN2] | 1.4 ± 0.21
69 | KAPKIQRLVTPQRLQRK [RPS6A] | 2.91 ± 0.042
70 | KARTNLHQHVVLKCLKS [RPC34] | 2.33 ± 0.14
71 | KASLLLHVLVAHKLKKS [FAS2] | 1.12 ± 0.088
72 | KATAAKKAVVKGTNGKK [RPL25] | 1.53 ± 0.17
73 | KCFDDIEPHIFDQLIEW [YCG1] | 3.31 ± 0.046
74 | KCIKYSEKLITKYFEPT [ECM29] | 2.84 ± 0.05
75 | KCIPKKGTVFQFEIPIS [POP4] | 1.49 ± 0.29
76 | KCSTRGLSTDHTTQIVN [YML103C/NUP188] | 2.79 ± 0.07
77 | KDDRFVPVRKFKGNNGV [RPN2] | 2.94 ± 0.069
78 | KDEPVQNDILQESFINT [FAS2] | 3.02 ± 0.052
79 | KDERDTWIHSEIEELKS [SMC3] | 2.91 ± 0.25
80 | KDKGVYVVTSDEHPKTL [SIR2] | 3.25 ± 0.055

Row | Sequence | protein stability index
81 | KDNDKNLKFLKNKDSLV [SRB4] | 3.28 ± 0.072
82 | KDNGMLIIDGQIIFGVV [RPO21] | 1.61 ± 0.21
83 | KDNVEHLVMRAISLGLL [RPN9] | 2.48 ± 0.071
84 | KDRISSCSSKEKTLVLE [SMC4] | 2.45 ± 0.12
85 | KDTTGPKAISNFLIKLS [YCS4] | 1.34 ± 0.14
86 | KEDKSEAIDGNGEIKGE [SNF2] | 2.17 ± 0.073
87 | KEIDPSQTTQLAGMDVE [FAS2] | 3.15 ± 0.077
88 | KEKKELQMRLKESEISH [YIL149C/MLP2] | 3.04 ± 0.17
89 | KELELERKEREDFQKRQ [SWI1] | 3.32 ± 0.068
90 | KELTRIPGEEVEETEVP [MED4] | 3.02 ± 0.13
91 | KENYPWELYTDFNEIVQ [POP3] | 2.4 ± 0.16
92 | KEQENITIQDLLFPKST [DPB4] | 2.52 ± 0.087
93 | KERISVAAASKILSNLV [PRE2] | 2.78 ± 0.048
94 | KERLTKEAAAVAEGKSK [RPL8A] | 3.31 ± 0.15
95 | KERSDGKRHIFDVNTLC [CDC53] | 1.26 ± 0.13
96 | KESAVISKQKSKLDYIF [SMC1] | 3.05 ± 0.11
97 | KESDDPSIPLVIIRRLK [POP1] | 3.06 ± 0.068
98 | KEYISRLWHTLKYYQDL [SNF5] | 1.42 ± 0.1
99 | KFDIIIVDTSGRHHQEE [SRP54] | 2.71 ± 0.072
100 | KFFHNGMIYNKLFVSKE [FAS2] | 2.38 ± 0.12
101 | KFFRVKYENKISTVIEV [SMC3] | 1.09 ± 0.28
102 | KFHKREVVEAVTVVDTP [RPL3] | 1.63 ± 0.18
103 | KFKRHHSDRYHRVAENW [RPL32] | 3.2 ± 0.05
104 | KFLQEFINLLLNCCGSV [IRR1] | 1.57 ± 0.11
